Results on nine sequences are retold here after the DeepSol protein solubility set.

A short description of this data set: soluble on expression in E. coli; label from the status in PepcDB or PDB records.
With “MAFISFRDFMEKAVKDYYSSQRALKDFFTAPELDRAFGEALAEFFSQHLSEFERPALVELGAGRGLLAYDILNYYRANYPDLFNRLKYYIYEFSPYLISKQREVLKNFKNVEWVEELPKVEGIVFSNEFFDALPVHIVKGGKELYVDEKGSEVWLSLENEKVKEFLRRMNYENLNQIVEVCLDCIDMLKKISESLVEGYHFVIDYGYTSEEITKYPEGTVVAYKEHKVVKDFLKEAGNADITAHVNFSALMEYGRDFGLETILFQSQRDFLMHIPTFLNELEKLSWEESAESVERLSRLKTMLISMGDRFKVLLQRKLSQLEHHHHHH”, the “soluble on expression in E. coli” value is listed as “not soluble”.
On to “CSEVNVVKERPKTDEHKSYSCSFKGCTDVELVAVICPYCEKNFCLRHRHQSDHDCEKLEVAKPRMAATQKLVR”, for which the “soluble on expression in E. coli” value was “soluble”.
For “MIKIEINGIDEIIAKLNLIANKTENKTDLMRNIAGTMESAVQTNFEVGGRPKWLGIKHRKGVPLVDSENLMDSITSAYDNDTAFVGTNEEYAAIHQFGGMAGRGCKVKIEARPFLTLTEQDKSDILEEITDYWQRLLQ”, the “soluble on expression in E. coli” value is listed as “not soluble”.
The value for “MIQKGLEGVKICESSICYLDGINGRLYYRGIPVEELAEKSTFEETAYFLWYGKLPTKSELEEFKRKMADYRELPAEALGILYHLPKNLHYIDVLKIFLSIHGSMDGNDEDLREKAIRVASVFPTILAYYYRYSKGKELIRPRKDLSHVENFYYMMFGERNEKIRLLESAFILLMEQDINASTFAALVIASTLSDLYSCIVGALGALKGPLHGGASEKVPPMLEEIGSEDRVEEFVQKCLKEKRKIMGFGHRVYKTYDPRAVFLKRVLQEHFPDSKLFRIASKLEEYIVSNKIKNIYPNVDLYSSVLFEELGFPRNMFTALFATARVVGWTAHVIEYVSDNKLIRPTSEYVGPMDVEYIPIERRDENG” was “soluble”; that for “MSKVKGDLEKSDKRPPSSMSTGSADSGVFSSGVHASSPSHSQGSSSQSGPPSPTTQLNSLLFETANLIAVNEQLRKEIAENKQIQTNQMRALRYSSNPVDQPFVANSISPHHGFPQRPPRGERRMQKPESYKTVICQAWLESKTCTFAENCRFAHGEEELRPAKLESRQNNKYKTKLCDKYTTTGLCPYGKRCLFIHPDNQPNAYIRADKLYEVSQRHALADLRDHVESQIMTGNTRNSYNQQPPPMGGLEMQSSPMKSSSDSSHMRSPMAQMNCETTRPHPSWPLESSSFFLPPEMSSINNNNLMSPFETPFPNGSTGIQPHFVTAKRRAAFPPVPSNFQQDDDNMSSIPGFDHLAEDMAKHLELW” was “not soluble”.
As to “MPFPFGKSHKSPADIVKNLKESMAVLEKQDISDKKAEKATEEVSKNLVAMKEILYGTNEKEPQTEAVAQLAQELYNSGLLSTLVADLQLIDFEGKKDVAQIFNNILRRQIGTRTPTVEYICTQQNILFMLLKGYESPEIALNCGIMLRECIRHEPLAKIILWSEQFYDFFRYVEMSTFDIASDAFATFKDLLTRHKLLSAEFLEQHYDRFFSEYEKLLHSENYVTKRQSLKLLGELLLDRHNFTIMTKYISKPENLKLMMNLLRDKSRNIQFEAFHVFKVFVANPNKTQPILDILLKNQAKLIEFLSKFQNDRTEDEQFNDEKTYLVKQIRDLKRPAQQEA”, the “soluble on expression in E. coli” value was “soluble”.
The entry for “MSIAQQLMDMGFPADKAEAAAGNNRNLDQALDWIEKDGAGVPMETDAPAQAAPGAADSGAPPVAASFKCDDCGKLLANDDAIMFHASKTKHENFSESSEAIKPLTAEEKAAKVLEIREKIKVHQAKKAKLEAEENREKEKKRREDGKAMISHKEAARDREIREAAQDRRREKNEDEIARKRVLEQIRLDKEARKAKASGQPVPEAKPAPSAAPVAPPKDYSTTTLQFRLLDGQTVRQQFEANEPLAMVRAWVETNHANGVPFTLMTPFPRKVFTEDDMGTPLKVLNLVPSANVILNRAA” is “not soluble”.
Regarding “MAHHHHHHMTSPMLMAAENFCFTPQSHFMVKTPKSERAHQCSKLYNEAFVVSNRTGLRSILRANESGRSYLNGGGIIARVWALEEALKAFFNLRKKKFVWGCDQSMWALLLIWSITRPENIKPALLVRRGLISLDYETRYFLYPSKTMVMSGMILHFAGPVHVWKRTLPQYLSEINWYRALSNSSPKREASIRLLKNSTVEMYTFWGSRKDAKLSTVCPISNISDPSWLSGQLKK”, the “soluble on expression in E. coli” value is on record as “soluble”.
The entry for “MSLSPVPPPLVRVAPSLFLGSARAAGAEEQLARAGVTLCVNVSRQQPGPRAPGVAELRVPVFDDPAEDLLAHLEPTCAAMEAAVRAGGACLVYCKNGRSRSAAVCTAYLMRHRGLSLAKAFQVGGPLGGRCFERGVSSGDEFSGRGRLRDWDRHFREGRVSLMVKSARPVAEPNPGFWSQLQKYEEALQAQSEGHHHHHH” is “not soluble”.
